Molecular target: nascent, unphosphorylated PKC species (PDK1 binding, Fig. S9C) (UniProt P68403)

B1: PDK1 (enzyme)
chain: MARTTSQLYDAVPIQSSVVLCSCPSPSMVRTQTESSTPPGIPGGSRQGPAMDGTAAEPRPGAGSLQHAQPPPQPRKKRPEDFKFGKILGEGSFSTVVLARELATSREYAIKILEKRHIIKENKVPYVTRERDVMSRLDHPFFVKLYFTFQDDEKLYFGLSYAKNGELLKYIRKIGSFDETCTRFYTAEIVSALEYLHGKGIIHRDLKPENILLNEDMHIQITDFGTAKVLSPESKQARANSFVGTAQYVSPELLTEKSACKSSDLWALGCIIYQLVAGLPPFRAGNEYLIFQKIIKLEYDFPEKFFPKARDLVEKLLVLDATKRLGCEEMEGYGPLKAHPFFESVTWENLHQQTPPKLTAYLPAMSEDDEDCYGNYDNLLSQFGCMQVSSSSSSHSLSASDTGLPQRSGSNIEQYIHDLDSNSFELDLQFSEDEKRLLLEKQAGGNPWHQFVENNLILKMGPVDKRKGLFARRRQLLLTEGPHLYYVDPVNKVLKGEIPWSQELRPEAKNFKTFFVHTPNRTYYLMDPSGNAHKWCRKIQEVWRQRYQSHPDAAVQ
fold binding relative to the phosphorylated form: 2 fold

— publication PMC8208635
